From PMC3847620, “A valid strategy for precise identifications of transcription factor binding sites in combinatorial regulation using bioinformatic and experimental approaches” come the findings set out here.

The target of series [1] is T1, MBP-IpMYB1 (Ipomoea purpurea, UniProt Q1JV13 1-272).
T1 sequence: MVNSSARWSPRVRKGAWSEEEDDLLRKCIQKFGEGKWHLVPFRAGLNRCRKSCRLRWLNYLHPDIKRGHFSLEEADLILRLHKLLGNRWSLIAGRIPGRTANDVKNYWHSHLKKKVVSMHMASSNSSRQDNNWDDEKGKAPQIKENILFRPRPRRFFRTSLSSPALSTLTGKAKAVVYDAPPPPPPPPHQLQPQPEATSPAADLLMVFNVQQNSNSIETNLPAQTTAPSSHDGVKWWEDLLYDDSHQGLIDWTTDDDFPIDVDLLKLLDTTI
As to the kind of experiment: EMSA; favored over probe 1; EMSA: 1x = 10 mM Tris-HCl pH 7.5, 50 mM NaCl, 8 mM MgCl2, 1 mM EDTA, 1 mM DTT, 5% glycerol; 20 pmol probe, 2 ug MBP-protein in 10 ul, 25 C, 10 min; 12% native PAGE, 0.25x TBE. To be noted: protein: recombinant; tags: MBP (pMAL-c2G).

In series [2] the target is T1, MBP-IpMYB1. As to the kind of experiment: EMSA; EMSA: 1x = 10 mM Tris-HCl pH 7.5, 50 mM NaCl, 8 mM MgCl2, 1 mM EDTA, 1 mM DTT, 5% glycerol; 20 pmol probe, 2 ug MBP-protein in 10 ul, 25 C, 10 min; 12% native PAGE, 0.25x TBE. To be noted: protein: recombinant; tags: MBP (pMAL-c2G). For orientation: Mobility shift assays separate free from complexed probe on a gel.

B1: MYB1pro probe 3 (dsDNA)
DNA 1: TCTAGCTAGCTAGCTACCAACTGCAC
DNA 2: GTGCAGTTGGTAGCTAGCTAGCTAGA
As for B1, the binding result with MBP-IpMYB1 [1] is “binds”.

B2: p1x3 (dsDNA)
DNA 1: ATTCCTAGCTACCATACCTAGCTACCATACCTAGCTACCATATTA
DNA 2: TAATATGGTAGCTAGGTATGGTAGCTAGGTATGGTAGCTAGGAAT
As for B2, in the series with MBP-IpMYB1 [2], the binding result is reported as “binds”.
